Results on one molecule are retold here after paper PMC3405102, “Solution Structure of the LIM-Homeodomain Transcription Factor Complex Lhx3/Ldb1 and the Effects of a Pituitary Mutation on Key Lhx3 Interactions” (PLoS ONE, 2012).

In this experiment the target is T1, Lhx3 LIM1+2 as it stands in the tethered complex Ldb1-Lhx3 (mouse, UniProt P50481-1 28-153).
T1 construct: Lhx3 (LIM homeobox protein 3), mouse, both LIM domains, residues 28-153; source: part of the tethered Ldb1-Lhx3 chain
T1 sequence (looked up): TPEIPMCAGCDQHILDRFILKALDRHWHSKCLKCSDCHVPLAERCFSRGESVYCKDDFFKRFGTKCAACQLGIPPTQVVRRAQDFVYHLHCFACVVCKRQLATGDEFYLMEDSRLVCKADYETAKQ
Kind of experiment: SAXS; Ldb1-Lhx3 tethered complex at 4.5 mg mL^-1 in 20 mM Na2HPO4, 40 mM NaCl, 1 mM DTT, pH 6.8, 283 K; mass from I(0), Guinier analysis, DAMMIF and BUNCH modelling. The note with it: both partners purified.

B1: Ldb1LID as it stands in the tethered complex Ldb1-Lhx3 (domain or fragment, mouse, UniProt P70662-3 300-339, looked up)
chain: DVMVVGEPTLMGGEFGDEDERLITRLENTQFDAANGIDDE
notes: numbers count on: isoform P70662-3; source: part of the tethered Ldb1-Lhx3 chain
With B1, the binding result is “binds”.
